From publication PMC6138665 (2018) come the findings set out here.

Non-standard residues stand in square brackets, D forms with d. No end group written: not given here. pS = N[C@@H](COP(=O)(O)O)C(=O)O

Assay [1] concerns the target T1, GABARAP protein (recombinant) (UniProt O95166 1-117). As to the kind of experiment: NMR; GABARAP residue I32.
Assay [2] concerns the target T2, LC3B protein (recombinant) (UniProt Q9GZQ8 1-120). Put plainly: NMR.
The target in assay [3] is LC3A protein (recombinant) (UniProt Q9H492 1-121). As to the kind of experiment: ITC.
Assay [4] addresses -L1 protein (recombinant) (UniProt Q9H0R8 1-117). Put plainly: ITC.
For assay [5], the target named is T1, GABARAP protein (recombinant). As to the kind of experiment: ITC.
Assay [6] concerns the target T2, LC3B protein (recombinant). Put plainly: ITC. (In general: In ITC the heat of successive injections is recorded.)

T1 sequence (O95166 whole entry): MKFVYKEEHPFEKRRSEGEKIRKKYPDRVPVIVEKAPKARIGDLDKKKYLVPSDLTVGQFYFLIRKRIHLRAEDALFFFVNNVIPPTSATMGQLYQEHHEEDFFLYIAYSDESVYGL
Sequence of -L1 protein (recombinant) (Q9H0R8 whole entry): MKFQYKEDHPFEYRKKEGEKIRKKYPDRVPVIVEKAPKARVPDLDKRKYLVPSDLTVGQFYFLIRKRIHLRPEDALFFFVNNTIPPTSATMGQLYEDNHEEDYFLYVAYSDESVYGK

For EALN[pS]GVEYYWDQLNET [AMBRA1-LIR peptide, S1014 phosphorylated (P1)], the Kd in assay [1] was 7 µM; in assay [2], 46 µM; in assay [3], roughly 50 µM; in assay [4] it was 25 µM.
Consider EALNDGVEYYWDQLNET [AMBRA1-LIR peptide, D-phosphomimicked (PM)], for which the Kd in assay [5] is 31 µM; in assay [6], roughly 50 µM.
With EALNSGVEYYWDQLNET [AMBRA1-LIR peptide, unphosphorylated (P0)], the values for the Kd in assay [1], in assay [2] and in assay [4] were 61 µM, 193 µM and greater than 50 µM, respectively.

A word on the Kd: it is a measure of binding affinity in units of concentration.
